Assay results: US7176188B2, “Method of lethally sensitizing human and animal cells” (UniversitéLaval, priority 2003, dated 2007)

B1: His-PME-4: His-tagged recombinant C. elegans PARG PME-4 (SEQ ID NO:11) expressed in bacteria from pET23a-PME-4 (protein)
chain: MDHENLMKYLEEFRSIRFQPDFQKVDAERNVRYCEITDFPISNISFELLETGVSQQWRNCDQNLFNEYLKTYKNGGYSQFEDLLFKIWGYSEEKERFDLPALKSFYRKMSEIVGEDEVLEKLARLVRITKSACEVLPEKIYRLVGDIESATFSHIQCASLIAWMFFSDTPRLSFIIILQKTTCVAVEKLKFLFTYFDKMSIDPPIGAVSFRKMRITHKQYLENWKLRETNLLPDVQVFDKMSIEETALCTQIDFANKRLGGGVLKGGAVQEEIRFMMCPEMMVAILLNDVTQDLEAISIVGAYVFSSYTGYSNTLKWAKITPKHSAQNNNSFRDQFGRLQTETVAIDAVRNAGTPLECLLNQLTTEKLTREVRKAAIGFLSAGDGFSKIPVVSGWWGCGAFRGNKPLKFLIQVIACGISDRPLQFCTFGDTELAKKCEEMMTLFRNNNVRTGQLFLIINSIGPPLNYSEQYVFDAIRAKINSTKA
modifications: His tag; PEPTIDE (1)...(485) PME-4
B2: His-PME-3L: His-tagged recombinant C. elegans PARG PME-3L (SEQ ID NO:9) expressed in bacteria from pQE-PME-3L (protein)
chain: MSKKFIELGDPVTQDEKDYEDYVGVGFAHQVPTMKRRKLTEHGNTTESKEDPEEPKSRDVFVSSQSSDESQEDSAENPEIAKEVSENCENLTETLKISNIESLDNVTERSEHTLDNHKSTEPMEEDVNNKSNIDVAINSDEDDELVLEENNKEMRDGEQVQQDLFADDQELIEYPGIMKDTTTQLDITDSEVETAQKMEMIEETEADSTFVGEDSKNQRQSGTTSDEVDADSQINLATKTVRTSSSSFLSTVSTCEAPAKGRARMYQKELEKHVIAFTEGNLTLQPDLNKVDPDRNYRYCTIPNFPASQGKLREDNRYGPKIVLPQRWREFDSRGRRRDSYFYFKRKLDGYLKCYKTTGYFMFVGLLHNMWEFDPDITYKLPALEMYYKEMSELVGREEVLEKFARVARIAKTAEDILPERIYRLVGDVESATLSHKQCAALVARMFFARPDSPFSFCRILSSDKSICVEKLKFLFTYFDKMSMDPPDGAVSFRLTKMDKDTFNEEWKDKKLRSLPEVEFFDEMLIEDTALCTQVDFANEHLGGGVLNHGSVQEEIRFLMCPEMMVGMLLCEKMKQLEAISIVGAYVFSSYTGYGHTLKWAELQPNHSRQNTNEFRDRFGRLRVETIAIDAILFKGSKLDCQTEQLNKANIIREMKKASIGFMSQGPKFTNIPIVTGWWGCGAFNGDKPLKFIIQVIAAGVADRPLHFCSFGEPELAAKCKKIIERMKQKDVTLGMLFSMINNTGLPHKHFEFYVFDRISTYLSSSEDVESSKSSPSVSRA
modifications: His tag; PEPTIDE (1)...(781) PME-3L

Assay: PARG activity of bacterial extracts expressing recombinant protein (TLC release of 32P-ADP-ribose from 32P-poly(ADP-ribose))
Assay type: biochemical, C. elegans
Conditions: for PARG activity (qualitative): bacterially expressed His-tagged protein, 24 h at 37° C.
Experimental: Cultures of M15-pREP4 bacteria transformed with pQE-PME-3L, were grown overnight at saturation at 37° C. Fresh cultures (1000 ml) were started with 50-mL overnight cultures and grown at 37° C. at OD600 nm 0.600. Cultures were then induced with 1 mM isopropyl-1-thio-β-d-galactopyranoside (IPTG) at 37° C. for 2.5 h. M15-pREP4 bacteria transformed with vector alone were also treated with 1 mM IPTG at 37° C. for 2.5 h. Cultures were pelleted at 3000×g for 10 min at 4° C., resuspended in 10 ml extraction buffer (50 mM KPO4, pH 7.5, 50 mM Kcl, 10 mM β-mercaptoethanol, 0.1% triton X-100) and passed twice at 16,000 psi in a French Pressure Cell (SLM-AMINCO®, Rochester, N.Y.) maintained at 4° C. Extracts were centrifuged for 10 min at 1000×g at 4° C. and protein concentration of supernatants were determined. Each supernatant (23.7 mg/ml for M15+pQE-30 and 22.2 mg/ml for pQE-PME-3L) were analyzed on SDS-PAGE and assayed for PARG activity.
PARG activity was determined according to Ménard et al (1987, Biochem. Cel Biol. 65: 668–673). Ten μl of worm or bacterial extracts were assayed for 24 h at 37° C. in the presence of ^32P-poly(ADP-ribose) followed by a thin layer chromatography. Radiolabeled ADP-ribose units released from ADP-ribose polymers were quantified directly on the TLC using an Instant Imager Electronic Autoradiography device (Canberra-Packard). One unit of PARG is defined as the amount of enzyme required to liberate 1 nmol of ADP-ribose per min at 37° C. under assay conditions (Menard and Poirier, 1987, Biochem. Cell Biol. 65: 668–673). Radiographic X-OMAT film was exposed to the TLC plate and placed at −80° C. for 24 h.

Molecule | PARG activity (qualitative) | PARG activity compared to His-PME-4 (bacterial extracts, similar rate of bacterial expression) [times]
B1 | display PARG activity | 
B2 | display PARG activity | ~10
